US20250387497A1 (PURDUE RESEARCH FOUNDATION, published 2025)
Values joined by “and” are separate entries in the source; they are usually repeats but may differ in a detail not shown here. Identical values can stand only once.

Experiments:
[1] = target: interleukin-4 receptor alpha (IL-4Rα); experiment: binding affinity, method not stated
[2] = target: T1, fibroblast growth factor receptor 3 (FGFR3); experiment: binding affinity, method not stated
T1 chain: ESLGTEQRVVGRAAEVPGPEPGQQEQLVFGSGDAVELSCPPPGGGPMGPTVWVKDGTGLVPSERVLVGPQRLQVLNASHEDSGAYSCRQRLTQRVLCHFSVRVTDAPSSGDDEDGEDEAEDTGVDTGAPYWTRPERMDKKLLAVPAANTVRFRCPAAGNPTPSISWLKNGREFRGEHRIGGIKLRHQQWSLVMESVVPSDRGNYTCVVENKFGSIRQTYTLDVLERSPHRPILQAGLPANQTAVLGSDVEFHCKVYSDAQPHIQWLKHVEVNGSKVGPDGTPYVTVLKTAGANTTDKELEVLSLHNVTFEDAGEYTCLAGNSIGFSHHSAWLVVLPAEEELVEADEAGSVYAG

Sequence of interleukin-4 receptor alpha (IL-4Rα) (chain, as listed by the source): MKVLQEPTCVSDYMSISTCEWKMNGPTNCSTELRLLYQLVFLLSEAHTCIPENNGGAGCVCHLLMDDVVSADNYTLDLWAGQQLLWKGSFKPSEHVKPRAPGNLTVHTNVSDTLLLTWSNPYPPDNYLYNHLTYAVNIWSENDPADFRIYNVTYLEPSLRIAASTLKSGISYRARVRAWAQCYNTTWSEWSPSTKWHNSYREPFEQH

Binder	Kd [1]	Kd [2]
KLAKLAKKLAKLAK [peptide "I", binding motif for IL-4Rα, KLAKLAKKLAKLAK]	< 60 µM and 55.9 µM	–
VSPPLTLGQLLS [peptide "F", binding motif for FGFR3, VSPPLTLGQLLS]	–	~1000 nM and 1000 nM
